± gives the uncertainty stated by the source.

Here are results for 167 variants from the Human Domainome abundance scans (Beltran et al. 2025).

First the molecules themselves.
B1: Transcription intermediary factor 1-beta, residues 620 to 671; numbered along this chain, Q13263 (parent)
chain: TLDDSATICRVCQKPGDLVMCNQCEFCFHLDCHLPALQDVPGEEWSCSLCHV

The variants in this series derive from B1. Put plainly: abundance fitness (aPCA) (normalised: wild type 0, dead -1); higher = more abundant; growth selection in yeast, the domain comes from the species named. The conditions noted are these: Homo sapiens.
For the variant S48T, the abundance fitness was -0.217 ± 0.1.

Regarding S48R, the abundance fitness is 0.105 ± 0.087.

Take S48E: the abundance fitness was -0.014 ± 0.12.

In the case of S48V, the abundance fitness is -0.508 ± 0.085.

Consider S48A, for which the abundance fitness is -0.112 ± 0.1.

Take S48D: the abundance fitness was -0.242 ± 0.17.

In the case of S48G, the abundance fitness was -0.071 ± 0.083.

Take S48N: the abundance fitness was -0.114 ± 0.28.

Take C50M: the abundance fitness is -0.65 ± 0.19.

As to C50G, the abundance fitness is -0.278 ± 0.098.

For the variant C50R, the abundance fitness is -0.214 ± 0.11.

Turning to C50T, the abundance fitness is -0.386 ± 0.13.

For C50E, the abundance fitness is -0.232 ± 0.12.

Regarding C50L, the abundance fitness is -0.797 ± 0.11.

In the case of C50K, the abundance fitness was -0.1 ± 0.16.

On to C50Q, for which the abundance fitness is -0.329 ± 0.16.

In the case of C50V, the abundance fitness is -0.513 ± 0.1.

On to C50N, for which the abundance fitness is -0.505 ± 0.35.

Regarding C50P, the abundance fitness turned out to be 0.037 ± 0.15.

As for C50Y, the abundance fitness is -1.03 ± 0.34.

Take C50S: the abundance fitness was -0.462 ± 0.12.

On to C50D, for which the abundance fitness was -0.183 ± 0.17.

With C50A, the abundance fitness is -0.112 ± 0.096.

In the case of C50F, the abundance fitness was -0.315 ± 0.18.

For P41K, the abundance fitness was -0.645 ± 0.25.

Regarding P41G, the abundance fitness is -0.202 ± 0.11.

In the case of P41A, the abundance fitness was -0.368 ± 0.13.

P41Q: the abundance fitness is -0.204 ± 0.17.

On to P41N, for which the abundance fitness is -0.112 ± 0.17.

Consider P41V, for which the abundance fitness was -0.254 ± 0.11.

With P41M, the abundance fitness is -0.303 ± 0.16.

Take P41C: the abundance fitness is -0.242 ± 0.14.

As to P41S, the abundance fitness was -0.374 ± 0.14.

As to P41E, the abundance fitness was -0.073 ± 0.14.

For P41I, the abundance fitness is -0.302 ± 0.18.

As to P41T, the abundance fitness was -0.619 ± 0.22.

Turning to P41H, the abundance fitness was -0.513 ± 0.18.

On to P41W, for which the abundance fitness was -0.258 ± 0.2.

As for P41D, the abundance fitness was -0.245 ± 0.21.

Consider P41F, for which the abundance fitness is -0.439 ± 0.15.

Consider P41R, for which the abundance fitness is -0.26 ± 0.096.

For the variant V40D, the abundance fitness was -0.02 ± 0.15.

Consider V40S, for which the abundance fitness is -0.121 ± 0.11.

V40N: the abundance fitness was -0.218 ± 0.2.

As to V40K, the abundance fitness is -0.221 ± 0.35.

In the case of V40Q, the abundance fitness was -0.383 ± 0.21.

Turning to V40M, the abundance fitness is -0.213 ± 0.22.

For V40C, the abundance fitness is -0.401 ± 0.17.

For the variant V40A, the abundance fitness was -0.323 ± 0.14.

As to V40G, the abundance fitness is -0.301 ± 0.1.

V40H: the abundance fitness is -0.361 ± 0.24.

For the variant V40Y, the abundance fitness was -0.121 ± 0.22.

In the case of V40P, the abundance fitness is 0.264 ± 0.19.

For the variant V40L, the abundance fitness was -0.221 ± 0.11.

Regarding V40W, the abundance fitness was -0.101 ± 0.14.

Consider V40I, for which the abundance fitness is -0.401 ± 0.23.

For the variant V40R, the abundance fitness stood at 0.166 ± 0.098.

Regarding V40F, the abundance fitness turned out to be 0.01 ± 0.12.

As for V40E, the abundance fitness is -0.403 ± 0.17.

As to W45F, the abundance fitness is -0.342 ± 0.16.

For the variant W45C, the abundance fitness was -0.283 ± 0.11.

For the variant W45E, the abundance fitness was -0.158 ± 0.14.

Turning to W45G, the abundance fitness is -0.137 ± 0.086.

In the case of W45H, the abundance fitness was -0.103 ± 0.2.

Take W45I: the abundance fitness is -0.254 ± 0.16.

As to W45A, the abundance fitness came to 0.051 ± 0.13.

Take W45Y: the abundance fitness is -0.202 ± 0.19.

Take W45R: the abundance fitness is -0.131 ± 0.089.

W45L: the abundance fitness was -0.195 ± 0.091.

Take W45V: the abundance fitness is -0.236 ± 0.099.

W45N: the abundance fitness is -0.377 ± 0.3.

Consider W45M, for which the abundance fitness was -0.296 ± 0.2.

W45T: the abundance fitness is -0.54 ± 0.16.

W45D: the abundance fitness is -0.506 ± 0.14.

Take W45Q: the abundance fitness is -0.085 ± 0.22.

Take E44L: the abundance fitness was -0.253 ± 0.087.

For the variant E44C, the abundance fitness stood at 0.058 ± 0.15.

Consider E44A, for which the abundance fitness was -0.226 ± 0.11.

For E44Y, the abundance fitness is -0.143 ± 0.23.

Turning to E44Q, the abundance fitness is -0.057 ± 0.13.

On to E44P, for which the abundance fitness was -0.369 ± 0.13.

As for E44M, the abundance fitness is -0.058 ± 0.12.

As to E44R, the abundance fitness was -0.08 ± 0.095.

For the variant E44G, the abundance fitness is -0.042 ± 0.11.

For E44V, the abundance fitness is -0.217 ± 0.085.

As to E44N, the abundance fitness was -0.16 ± 0.2.

On to E44S, for which the abundance fitness is -0.07 ± 0.11.

Turning to E44K, the abundance fitness was -0.172 ± 0.13.

Consider E44F, for which the abundance fitness is -0.412 ± 0.2.

As to E44T, the abundance fitness was -0.164 ± 0.14.

On to E44I, for which the abundance fitness was -0.35 ± 0.18.

In the case of A36H, the abundance fitness is -0.168 ± 0.19.

For A36I, the abundance fitness was -0.449 ± 0.19.

Take A36D: the abundance fitness was -0.394 ± 0.16.

On to A36G, for which the abundance fitness is -0.116 ± 0.087.

For A36L, the abundance fitness was -0.173 ± 0.11.

On to A36P, for which the abundance fitness was determined as 0.077 ± 0.15.

As for A36W, the abundance fitness is -0.527 ± 0.17.

Turning to A36K, the abundance fitness was -0.183 ± 0.15.

A36T: the abundance fitness is -0.161 ± 0.17.

For A36N, the abundance fitness is -0.384 ± 0.31.

For the variant A36R, the abundance fitness turned out to be 0.058 ± 0.11.

As for A36Y, the abundance fitness is -0.499 ± 0.2.

For A36S, the abundance fitness was 0.079 ± 0.11.

As to A36V, the abundance fitness was determined as 0.06 ± 0.093.

A36Q: the abundance fitness is -0.633 ± 0.32.

In the case of A36C, the abundance fitness is -0.713 ± 0.18.

As to A36E, the abundance fitness worked out at 0.034 ± 0.13.

For L34K, the abundance fitness amounted to 0.13 ± 0.15.

Turning to L34S, the abundance fitness amounted to 0.283 ± 0.093.

Regarding L34V, the abundance fitness worked out at 0.062 ± 0.095.

Take L34A: the abundance fitness came to 0.164 ± 0.13.

Regarding L34E, the abundance fitness worked out at 0.188 ± 0.13.

Turning to L34N, the abundance fitness came to 0.543 ± 0.15.

Turning to L34Y, the abundance fitness turned out to be 0.062 ± 0.15.

Take L34F: the abundance fitness was determined as 0.03 ± 0.15.

Turning to L34C, the abundance fitness came to 0.274 ± 0.094.

In the case of L34H, the abundance fitness turned out to be 0.157 ± 0.17.

For L34P, the abundance fitness turned out to be 0.036 ± 0.18.

For the variant L34W, the abundance fitness was -0.328 ± 0.11.

As to L34I, the abundance fitness is -0.305 ± 0.17.

As to L34Q, the abundance fitness came to 0.05 ± 0.15.

Turning to L34D, the abundance fitness is 0.325 ± 0.14.

For the variant L34G, the abundance fitness worked out at 0.098 ± 0.08.

Regarding L34T, the abundance fitness is -0.065 ± 0.17.

For D31P, the abundance fitness was -0.175 ± 0.16.

As to D31W, the abundance fitness was -0.921 ± 0.32.

Consider D31Q, for which the abundance fitness is 0.04 ± 0.21.

For the variant D31V, the abundance fitness is -0.254 ± 0.093.

As for D31R, the abundance fitness is -0.324 ± 0.12.

With D31T, the abundance fitness was -0.308 ± 0.12.

D31S: the abundance fitness was -0.317 ± 0.11.

As for E43I, the abundance fitness is -0.092 ± 0.14.

Consider E43A, for which the abundance fitness was 0.035 ± 0.11.

Consider E43H, for which the abundance fitness came out at 0.062 ± 0.22.

For the variant E43S, the abundance fitness was -0.007 ± 0.095.

In the case of E43C, the abundance fitness is -0.129 ± 0.12.

For E43V, the abundance fitness is -0.165 ± 0.086.

For E43L, the abundance fitness was -0.085 ± 0.086.

For the variant E43D, the abundance fitness was determined as 0.088 ± 0.17.

For E43Q, the abundance fitness was -0.298 ± 0.19.

As to E43W, the abundance fitness is -0.2 ± 0.1.

On to E43P, for which the abundance fitness is -0.032 ± 0.14.

Take E43Y: the abundance fitness was -0.486 ± 0.22.

E43N: the abundance fitness is -0.089 ± 0.37.

Consider H51C, for which the abundance fitness was -0.281 ± 0.22.

As for H51G, the abundance fitness is -0.302 ± 0.096.

For the variant H51D, the abundance fitness was found to be 0.041 ± 0.11.

As to H51F, the abundance fitness was -0.452 ± 0.24.

On to H51I, for which the abundance fitness was -0.264 ± 0.18.

With H51E, the abundance fitness is 0.107 ± 0.15.

Consider L37C, for which the abundance fitness is -0.021 ± 0.12.

Regarding L37R, the abundance fitness is -0.106 ± 0.096.

Take L37W: the abundance fitness came to 0.118 ± 0.13.

In the case of L37E, the abundance fitness is -0.499 ± 0.17.

Turning to L37V, the abundance fitness is -0.094 ± 0.096.

As to L37N, the abundance fitness is -0.334 ± 0.35.

Turning to L37H, the abundance fitness is -0.215 ± 0.24.

Consider L37K, for which the abundance fitness was -0.421 ± 0.2.

Take L37Q: the abundance fitness was -0.108 ± 0.17.

Take L37M: the abundance fitness was -0.083 ± 0.14.

Turning to L37Y, the abundance fitness is -0.27 ± 0.18.

L37P: the abundance fitness was -0.138 ± 0.14.

With L37D, the abundance fitness is -0.278 ± 0.21.

Take L37T: the abundance fitness was 0.035 ± 0.14.

Regarding L37F, the abundance fitness is -0.344 ± 0.2.

On to L37S, for which the abundance fitness was -0.071 ± 0.11.
